Laboratory results: publication PMC7425898, “Human Golgi phosphoprotein 3 is an effector of RAB1A and RAB1B” (PLoS ONE, 2020)
Values belong to the binder of their own block, whether it stands above or below them.

Columns and labels:
[1] = molecular target: T1, Recombinant, untagged GOLPH3 (human, UniProt Q9H4A6 1-298); experiment: ITC; GOLPH3 (100 μM) in the chamber, RAB1A or RAB1B (1 mM) injected; 25°C; 50 mM Tris-HCl, 150 mM NaCl, 1 mM DTT, pH 7.4; one-site model; no nucleotide exchange; conditions: both partners purified
T1 construct: Golgi phosphoprotein 3 (GOLPH3), human, full-length cDNA NM_022130, cloned into pGST-Parallel-1; removal of GST by TEV is surmised from the vector and from the method told for RAB1; also called purified recombinant GOLPH3; not shown: GST, N-terminal, cleaved

[2] = molecular target: T1, Recombinant, untagged GOLPH3; experiment: pull-down; GST-RAB1A/B (50 μM) or GST on glutathione-Sepharose 4B, increasing concentrations of recombinant GOLPH3; 20 mM HEPES, 100 mM NaCl, 5 mM MgCl2, 1 mM DTT, 1% CHAPS, pH 7.2; 3 h, 4°C; Coomassie, densitometry, non-linear fit assuming 1:1; apparent KD; conditions: both partners purified
GFP-RAB1B-Q67L = molecular target: T2, GFP-RAB1B-Q67L (human, UniProt Q9H0U4 1-201, Q67L); experiment: co-IP; GFP-Trap agarose beads with extracts (0.2 mg) of H4 cells expressing GFP or GFP-RAB1A/B variants, supplemented with extract (0.3 mg) of non-transfected cells; 25 mM Tris-HCl, 50 mM NaCl, 0.1% NP-40, pH 7.5; 1.5-4 h, 4°C; immunoblot for GOLPH3, densitometry; conditions: partners not purified
T2 construct: RAB1B, human, pEGFP construct, GTP-locked variant; also called GFP-tagged GTP-locked active state variant of RAB1B; source: H4 cells, transfected (pEGFP construct), in soluble protein extract
T2 sequence (Q9H0U4 whole entry Q67L): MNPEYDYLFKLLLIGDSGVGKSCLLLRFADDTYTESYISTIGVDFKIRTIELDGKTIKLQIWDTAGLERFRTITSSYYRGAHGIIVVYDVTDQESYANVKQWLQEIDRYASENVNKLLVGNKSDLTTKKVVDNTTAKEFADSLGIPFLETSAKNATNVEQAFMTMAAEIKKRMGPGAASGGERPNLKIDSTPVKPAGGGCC

GFP-RAB1A-Q70L = molecular target: T3, GFP-RAB1A-Q70L (human, UniProt P62820 1-205, Q70L); experiment: as above; conditions: partners not purified
T3 construct: RAB1A, human, pEGFP construct, GTP-locked variant; also called GFP-tagged GTP-locked active state variant of RAB1A; source: H4 cells, transfected (pEGFP construct), in soluble protein extract
T3 sequence (P62820 whole entry Q70L): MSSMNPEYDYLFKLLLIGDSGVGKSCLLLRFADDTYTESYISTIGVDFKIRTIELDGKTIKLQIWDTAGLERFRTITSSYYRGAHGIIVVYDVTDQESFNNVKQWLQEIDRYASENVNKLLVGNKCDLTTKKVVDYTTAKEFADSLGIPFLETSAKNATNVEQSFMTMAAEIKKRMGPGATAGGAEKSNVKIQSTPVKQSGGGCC

GST-RAB1A-Q70L = molecular target: T4, GST-RAB1A-Q70L (human, UniProt P62820 1-205, Q70L); experiment: pull-down; GST or GST-tagged RAB1A/B variants on glutathione-Sepharose 4B, soluble protein extract of H4 cells (0.5 mg) with protease and phosphatase inhibitors; binding buffer-1; 3 h, 4°C; immunoblot for GOLPH3, densitometry; conditions: one partner purified
T4 construct: RAB1A, human, full length, in pGST-Parallel-1, GTP-locked variant; also called GST-tagged, GTP-locked active state variant of RAB1A; source: E. coli B834(DE3), purified on glutathione-Sepharose 4B
T4 sequence (P62820 whole entry Q70L): as above

GST-RAB1B-Q67L = molecular target: T5, GST-RAB1B-Q67L (human, UniProt Q9H0U4 1-201, Q67L); experiment: as above; conditions: one partner purified
T5 construct: RAB1B, human, full length, in pGST-Parallel-1, GTP-locked variant; also called GST-tagged, GTP-locked active state variant of RAB1B; source: E. coli B834(DE3), purified on glutathione-Sepharose 4B
T5 sequence (Q9H0U4 whole entry Q67L): as the sequence (Q9H0U4 whole entry Q67L) above

Kd [1]: 78.4 µM | stoichiometry N [1]: 1
B1: Purified, recombinant RAB1B (natural protein)
chain: not shown
notes: RAB1B, human, full length, from pGST-Parallel-1, GST removed by TEV protease; source: E. coli B834(DE3), purified (glutathione-Sepharose 4B, TEV cleavage, Ni-NTA, Superdex 200)

Kd [2]: 54.7 ± 4.2 µM
B2: GST-RAB1A (wild type) (natural protein)
chain: not shown
notes: RAB1A, human, full length, cloned into pGST-Parallel-1; also called GST-tagged RAB1A; GST-RAB1A/B; source: E. coli B834(DE3), purified on glutathione-Sepharose 4B

Kd [2]: 64.2 ± 3.7 µM
B3: GST-RAB1B (wild type) (natural protein)
chain: not shown
notes: RAB1B, human, full length, cloned into pGST-Parallel-1; also called GST-tagged RAB1B; GST-RAB1A/B; source: E. coli B834(DE3), purified on glutathione-Sepharose 4B

fold of GOLPH3 pulled down against the wild type variant (GFP-RAB1B-Q67L): ~1.1 times | fold of GOLPH3 pulled down against the wild type variant (GFP-RAB1A-Q70L): ~1.2 times | fold of GOLPH3 pulled down against the wild type variant (GST-RAB1A-Q70L): ~1.2 times | fold of GOLPH3 pulled down against the wild type variant (GST-RAB1B-Q67L): ~1.1 times
B4: Endogenous GOLPH3 (natural protein, human (endogenous in H4), UniProt Q9H4A6 1-298, looked up)
chain: MTSLTQRSSGLVQRRTEASRNAADKERAAGGGAGSSEDDAQSRRDEQDDDDKGDSKETRLTLMEEVLLLGLKDREGYTSFWNDCISSGLRGCMLIELALRGRLQLEACGMRRKSLLTRKVICKSDAPTGDVLLDEALKHVKETQPPETVQNWIELLSGETWNPLKLHYQLRNVRERLAKNLVEKGVLTTEKQNFLLFDMTTHPLTNNNIKQRLIKKVQEAVLDKWVNDPHRMDRRLLALIYLAHASDVLENAFAPLLDEQYDLATKRVRQLLDLDPEVECLKANTNEVLWAVVAAFTK
notes: Golgi phosphoprotein 3 (GOLPH3), endogenous in human H4 neuroglioma cells; source: endogenous, H4 human neuroglioma cells, soluble protein extract

Kd [1]: 61.9 µM | stoichiometry N [1]: 1
B5: Purified, recombinant RAB1A (natural protein)
chain: not shown
notes: RAB1A, human, full length, from pGST-Parallel-1, GST removed by TEV protease; source: E. coli B834(DE3), purified (glutathione-Sepharose 4B, TEV cleavage, Ni-NTA, Superdex 200)
